Measurements taken from US12319925B2, “Methods and compositions for genomic integration” (Myeloid Therapeutics, Inc., priority 2021, dated 2025).

B1: LINE-1plasmid-cd5_fcr-pi3k_t2a_GFPintron: LINE-1 plasmid with 3.7 kb cargo: CD5 binding receptor, T2A, intron-interrupted GFP (SEQ ID NO: 40) (nucleic acid)
DNA: CGGCCGCGGGGGGAGGAGCCAAGATGGCCGAATAGGAACAGCTCCGGTCTACAGCTCCCAGCGTGAGCGACGCAGAAGACGGTGATTTCTGCATTTCCATCTGAGGTACCGGGTTCATCTCACTAGGGAGTGCCAGACAGTGGGCGCAGGCCAGTGTGTGTGCGCACCGTGCGCGAGCCGAAGCAGGGCGAGGCATTGCCTCACCTGGGAAGCGCAAGGGGTCAGGGAGTTCCCTTTCCGAGTCAAAGAAAGGGGTGACGGACGCACCTGGAAAATCGGGTCACTCCCACCCGAATATTGCGCTTTTCAGACCGGCTTAAGAAACGGCGCACCACGAGACTATATCCCACACCTGGCTCGGAGGGTCCTACGCCCACGGAATCTCGCTGATTGCTAGCACAGCAGTCTGAGATCAAACTGCAAGGCGGCAACGAGGCTGGGGGAGGGGCGCCCGCCATTGCCCAGGCTTGCTTAGGTAAACAAAGCAGCAGGGAAGCTCGAACTGGGTGGAGCCCACCACAGCTCAAGGAGGCCTGCCTGCCTCTGTAGGCTCCACCTCTGGGGGCAGGGCACAGACAAACAAAAAGACAGCAGTAACCTCTGCAGACTTAAGTGTCCCTGTCTGACAGCTTTGAAGAGAGCAGTGGTTCTCCCAGCACGCAGCTGGAGATCTGAGAACGGGCAGACTGCCTCCTCAAGTGGGTCCCTGACCCCTGACCCCCGAGCAGCCTAACTGGGAGGCACCCCCCAGCAGGGGCACACTGACACCTCACACGGCAGGGTATTCCAACAGACCTGCAGCTGAGGGTCCTGTCTGTTAGAAGGAAAACTAACAACCAGAAAGGACATCTACACCGAAAACCCATCTGTACATCACCATCATCAAAGACCAAAAGTAGATAAAACCACAAAGATGGGGAAAAAACAGAACAGAAAAACTGGAAACTCTAAAACGCAGAGCGCCTCTCCTCCTCCAAAGGAACGCAGTTCCTCACCAGCAACAGAACAAAGCTGGATGGAGAATGATTTTGATGAGCTGAGAGAAGAAGGCTTCAGACGATCAAATTACTCTGAGCTACGGGAGGACATTCAAACCAAAGGCAAAGAAGTTGAAAACTTTGAAAAAAATTTAGAAGAATGTATAACTAGAATAACCAATACAGAGAAGTGCTTAAAGGAGCTGATGGAGCTGAAAACCAAGGCTCGAGAACTACGTGAAGAATGCAGAAGCCTCAGGAGCCGATGCGATCAACTGGAAGAAAGGGTATCAGCAATGGAAGATGAAATGAATGAAATGAAGCGAGAAGGGAAGTTTAGAGAAAAAAGAATAAAAAGAAATGAGCAAAGCCTCCAAGAAATATGGGACTATGTGAAAAGACCAAATCTACGTCTGATTGGTGTACCTGA
B2: CD5-intron-fcr-PI3K: LINE-1 plasmid with 3 kb cargo encoding intron-interrupted CD5 binding chimeric receptor (ATAK) (SEQ ID NO: 39) (nucleic acid)
DNA: CGGCCGCGGGGGGAGGAGCCAAGATGGCCGAATAGGAACAGCTCCGGTCTACAGCTCCCAGCGTGAGCGACGCAGAAGACGGTGATTTCTGCATTTCCATCTGAGGTACCGGGTTCATCTCACTAGGGAGTGCCAGACAGTGGGCGCAGGCCAGTGTGTGTGCGCACCGTGCGCGAGCCGAAGCAGGGCGAGGCATTGCCTCACCTGGGAAGCGCAAGGGGTCAGGGAGTTCCCTTTCCGAGTCAAAGAAAGGGGTGACGGACGCACCTGGAAAATCGGGTCACTCCCACCCGAATATTGCGCTTTTCAGACCGGCTTAAGAAACGGCGCACCACGAGACTATATCCCACACCTGGCTCGGAGGGTCCTACGCCCACGGAATCTCGCTGATTGCTAGCACAGCAGTCTGAGATCAAACTGCAAGGCGGCAACGAGGCTGGGGGAGGGGCGCCCGCCATTGCCCAGGCTTGCTTAGGTAAACAAAGCAGCAGGGAAGCTCGAACTGGGTGGAGCCCACCACAGCTCAAGGAGGCCTGCCTGCCTCTGTAGGCTCCACCTCTGGGGGCAGGGCACAGACAAACAAAAAGACAGCAGTAACCTCTGCAGACTTAAGTGTCCCTGTCTGACAGCTTTGAAGAGAGCAGTGGTTCTCCCAGCACGCAGCTGGAGATCTGAGAACGGGCAGACTGCCTCCTCAAGTGGGTCCCTGACCCCTGACCCCCGAGCAGCCTAACTGGGAGGCACCCCCCAGCAGGGGCACACTGACACCTCACACGGCAGGGTATTCCAACAGACCTGCAGCTGAGGGTCCTGTCTGTTAGAAGGAAAACTAACAACCAGAAAGGACATCTACACCGAAAACCCATCTGTACATCACCATCATCAAAGACCAAAAGTAGATAAAACCACAAAGATGGGGAAAAAACAGAACAGAAAAACTGGAAACTCTAAAACGCAGAGCGCCTCTCCTCCTCCAAAGGAACGCAGTTCCTCACCAGCAACAGAACAAAGCTGGATGGAGAATGATTTTGATGAGCTGAGAGAAGAAGGCTTCAGACGATCAAATTACTCTGAGCTACGGGAGGACATTCAAACCAAAGGCAAAGAAGTTGAAAACTTTGAAAAAAATTTAGAAGAATGTATAACTAGAATAACCAATACAGAGAAGTGCTTAAAGGAGCTGATGGAGCTGAAAACCAAGGCTCGAGAACTACGTGAAGAATGCAGAAGCCTCAGGAGCCGATGCGATCAACTGGAAGAAAGGGTATCAGCAATGGAAGATGAAATGAATGAAATGAAGCGAGAAGGGAAGTTTAGAGAAAAAAGAATAAAAAGAAATGAGCAAAGCCTCCAAGAAATATGGGACTATGTGAAAAGACCAAATCTACGTCTGATTGGTGTACCTGAAAGTGATG

Test system: HEK293T cells
Assay: Expression of CD5 binder (ATAK) receptor and GFP by flow cytometry with labeled CD5 after LINE-1 plasmid transfection
Assay type: cell-based, human
Source text: HEK 293 cells were transfected with a plasmid having the LINE-1 elements, with a 3 kb cargo sequence encoding recombinant receptor protein CD5-intron-fcr-PI3K (ATAK) that is interrupted by an intron sequence in the CD5 binding domain. The cargo is a chimeric receptor that has a CD5 binding extracellular domain, a FCRγ transmembrane domain, and an intracellular domain having a PI3-kinase recruitment domain. As in the design of the experiment above, the ATAK receptor cannot express unless it is integrated in the genome and the intron is spliced off. Following transfection in HEK293T cells, the receptor expression is detected using labeled CD5 as bait for the CD5 binding extracellular domain. Results shown in FIGS. 9B and 9C show successful integration and expression of the receptor. 36.5% cells were ATAK (CD5 binder) positive (FIG. 9C).
In a further modification, a LINE-1 construct (LINE-1plasmid-cd5_fcr-pi3k_t2a_GFPintron) with a longer 3.7 kb cargo sequence encoding a non-interrupted recombinant receptor protein CD5-intron-fcr-PI3K and an interrupted GFP sequence with a T2A sequence between receptor and the GFP sequences (FIG. 10A). […] Exemplary fluorescence identification of GFP and fluorescent tagged CD5 binding and gating quantitation for experimental runs are shown in FIG. 10C and FIG. 10D.
The cargo GFP gene in the previous construct was replaced with intron interrupted CD5-FcR-P13K CAR-M sequence (Morrissey et al., 2018). The CD5 binder expression was measured by flow cytometry using a Alexa647-conjugated CD5 protein such that retrotransposed cells are CD5-AF647 positive (red histogram) compared with a plasmid transfected negative control cell population (grey histogram) (FIG. 30).
The cargo gene length was extended by adding the intron-interrupted GFP gene after the T2A sequence downstream of the CD5-FcR-PI3K CAR-M sequence (FIG. 31). The CD5 binder expression was measured by flow cytometry using a Alexa647-conjugated CD5 protein. […]

Row | Molecule | cells express both CAR-M and GFP proteins (3.7 kb cargo, flow cytometry signal in Q2, Alexa647-conjugated CD5 protein, FIG. 31) [%] | increase of the ATAK receptor and GFP double-positive cells (3.7 kb cargo, normalized against mock-transfected cells, FIG. 10B) | cells ATAK (CD5 binder) positive (HEK293T cells transfected with LINE-1 plasmid, 3 kb cargo, labeled CD5 as bait, FIG. 9C) [%]
1 | B1 | 10.8 | greater than 10 fold | 
2 | B2 |  |  | 36.5
